These results are taken from PMC5410128, “Can Aptameric Ligands Specific to Plasma Coagulation Factor VII Bind the Recombinant Form with High Affinity: Affinity Measurement by Fluorescence Method”.

The series addresses recombinant activated coagulation factor VII (FVIIa, AryoSeven) (UniProt P08709;P08709 61-212;213-466). The series can be described thus: fluorescence intensity change (FAM), plate reader; 5 mM Ca2+, 5 mM Mg2+; 40 mM Tris, 117 mM NaCl, 5 mM CaCl2, 5 mM MgCl2, pH 7.4; 1 nM protein, aptamer 100 pM-10 uM; 4 C, 1 h; errors are SE. To be noted: copies: 1;1, single strand, predicted partly folded.

Chain of recombinant activated coagulation factor VII (FVIIa, AryoSeven) (P08709 61-212, chain 1 of 2): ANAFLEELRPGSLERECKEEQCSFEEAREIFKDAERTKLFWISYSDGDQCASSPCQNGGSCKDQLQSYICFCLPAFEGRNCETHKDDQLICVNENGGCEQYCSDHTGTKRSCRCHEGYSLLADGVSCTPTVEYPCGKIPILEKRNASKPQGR
Chain of recombinant activated coagulation factor VII (FVIIa, AryoSeven) (P08709 213-466, chain 2 of 2): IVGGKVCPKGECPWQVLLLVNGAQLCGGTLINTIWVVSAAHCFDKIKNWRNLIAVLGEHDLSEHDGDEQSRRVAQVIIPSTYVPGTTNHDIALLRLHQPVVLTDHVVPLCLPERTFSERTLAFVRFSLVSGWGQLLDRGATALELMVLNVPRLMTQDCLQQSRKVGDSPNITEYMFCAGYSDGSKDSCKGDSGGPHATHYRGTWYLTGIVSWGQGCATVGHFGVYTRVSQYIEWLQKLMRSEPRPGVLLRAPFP

B1: Apt81 (ssDNA)
DNA: GGGAGATAGCCACGACCTATGCAGCCAGCCGCAGTGTAAGTGAATGCAGACATGGTCTAAGTGTCCAGGCTGTGCGAAAGC
Regarding B1, the Kd was 938 ± 149 nM.
As to CCGCACACCACGCGCATAATCCCGCGCACACGACTTGAAGTAGC (ssDNA) [Apt44], the dissociation constant (Kd) is 167 ± 18 nM.
